From article PMC12638309 come the findings set out here.

The target in assay [1] is T1, Ste2, native ɑ-factor pheromone-sensing mating GPCR (S. cerevisiae) (UniProt D6VTK4).
T1 sequence: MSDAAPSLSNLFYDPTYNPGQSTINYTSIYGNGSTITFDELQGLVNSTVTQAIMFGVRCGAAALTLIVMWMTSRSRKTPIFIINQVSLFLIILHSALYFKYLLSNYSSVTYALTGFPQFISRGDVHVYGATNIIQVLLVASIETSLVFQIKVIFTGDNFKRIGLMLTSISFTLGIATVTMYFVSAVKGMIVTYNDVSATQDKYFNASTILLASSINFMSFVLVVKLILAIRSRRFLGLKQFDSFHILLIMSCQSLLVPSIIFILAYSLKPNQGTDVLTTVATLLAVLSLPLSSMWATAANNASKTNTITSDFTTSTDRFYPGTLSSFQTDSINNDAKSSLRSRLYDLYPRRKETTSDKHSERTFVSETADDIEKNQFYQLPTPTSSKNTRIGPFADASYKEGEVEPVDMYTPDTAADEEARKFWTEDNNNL

Assay [2] addresses T1, Ste2, native ɑ-factor pheromone-sensing mating GPCR (S. cerevisiae). This is another data set of the same source.
Assay [3] addresses T2, Mam2, fungal peptide-sensing GPCR (P-factor) (UniProt Q00619).
T2 sequence: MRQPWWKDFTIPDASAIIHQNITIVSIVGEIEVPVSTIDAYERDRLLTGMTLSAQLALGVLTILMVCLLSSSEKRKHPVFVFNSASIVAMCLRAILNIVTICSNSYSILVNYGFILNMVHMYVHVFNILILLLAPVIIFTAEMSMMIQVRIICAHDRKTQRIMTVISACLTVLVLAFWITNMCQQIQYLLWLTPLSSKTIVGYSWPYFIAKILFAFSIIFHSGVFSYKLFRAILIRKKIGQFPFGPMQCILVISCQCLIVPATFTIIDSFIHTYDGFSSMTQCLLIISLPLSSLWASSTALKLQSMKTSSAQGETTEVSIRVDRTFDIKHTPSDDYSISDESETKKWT

B1: ɑ-factor (peptide)
peptide: WHWLQLKPGQPMY
On to B1, for which, in assay [1], the fold change of surface-displayed CD19 (P FUS1-CD19 output of the pheromone response pathway, flow cytometry) in yeast expressing Ste2 (DIX45), 0, 0.01 and 1 µM ɑ-factor, 20 h, pH 5 amounted to 312 fold. Moreover, in assay [2], the fold up-regulation of surface-displayed CD19 from P FIG1 in Ste2 yeast, 0-100 µM ɑ-factor, 20 h turned out to be 630 fold; the fold up-regulation of surface-displayed CD19 from P FUS1 in Ste2 yeast, 0-100 µM ɑ-factor, 20 h stood at 774 fold; the fold up-regulation of surface-displayed CD19 from P MFA2 in Ste2 yeast, 0-100 µM ɑ-factor, 20 h was 323 fold; the fold up-regulation of surface-displayed CD19 from P TDH3 (pheromone response pathway boost) in Ste2 yeast, 0-100 µM ɑ-factor, 20 h stood at 3.1 fold.

B2: P-factor (peptide)
peptide: TYADFLRAYQSWNTFVNPDRPNL
With B2, the fold change of surface-displayed CD19 (P FUS1-CD19 output of the pheromone response pathway, flow cytometry) in yeast expressing Mam2 (DIX60), 0, 1 and 10 µM P-factor, 20 h, pH 5 in assay [3] came out at 249 fold.
